From US20230049752A1 (University of California, published 2023)

Key:
[1] = target: human Claudin-6 (CLDN6) (human) (UniProt P56747); assay: FACS, limiting dilution, ARK2 cells
[2] = target: human Claudin-6 (CLDN6) (human) (UniProt P56747); assay: FACS, limiting dilution, UMUC4 cells
[3] = target: human Claudin-6 (CLDN6) (human) (UniProt P56747); assay: FACS, limiting dilution, OV90 cells

Row | Binder | FACS signal at 0.32 nM [1] | FACS signal at 1.6 nM [1] | FACS signal at 8 nM [1] | FACS signal at 40 nM [1] | FACS signal at 200 nM [1] | FACS signal at 1000 nM [1] | FACS signal at 0.32 nM [2] | FACS signal at 1.6 nM [2] | FACS signal at 8 nM [2] | FACS signal at 40 nM [2] | FACS signal at 200 nM [2] | FACS signal at 1000 nM [2] | FACS signal at 0.32 nM [3] | FACS signal at 1.6 nM [3] | FACS signal at 8 nM [3] | FACS signal at 40 nM [3] | FACS signal at 200 nM [3] | FACS signal at 1000 nM [3]
1 | AB S4 (antibody, V domains shown) VH: EVQLLESGGGLVQPGGSMRLSCAASGFTFSNYWMNWVRQAPGKGLEWIAQIRLKSDNYATHYTDSVKGRFTISRDDSKSTVYLQMNSLRAEDTGTYYCNDGPPSGSWGQGTLLTVSS VL: DIQMTQSPSSLSASVGDRVTITCRISENIYSYLAWYQQKPGKAPKLLVYNAKILVEGVPSRFSGSGSGTDFTLTISSLQPEDFGTYYCQHHYTVPWTFGQGTKLEIK | 354 | 438 | 1720 | 6350 | 31500 | 62500 | 518 | 651 | 1300 | 4120 | 13500 | 35000 | 432 | 515 | 1360 | 4590 | 15900 | 42000
2 | AB S1 (antibody, V domains shown) VH: EVQLLESGGGLVQPGGSMRLSCAASGFTFSNYWMNWVRQAPGKGLEWIAQIRLKSDNYATHYTDSVKGRFTISRDDSKRTVYLQMNSLRAEDTGTYYCSDGPPSGSWGQGTLLTVSS VL: DIQMTQSPSSLSASVGDRVTITCRISENIYSYLAWYQQKPGKAPKLLVYNAKILVEGVPSRFSGSGSGTDFTLTISSLQPEDFGTYYCQHHYTVPWTFGQGTKLEIK | 466 | 1380 | 3850 | 25800 | 62500 |  | 639 | 767 | 2330 | 6680 | 18700 | 41500 | 475 | 668 | 2390 | 10500 | 43500 | 
3 | AB S5 (antibody, V domains shown) VH: EVQLLESGGGLVQPGGSMRLSCAASGFTFSNYWMNWVRQAPGKGLEWLAQIRLKSDNYATHYTDSVKGRFTISRDDSKRTVYLQMNSLRAEDTGIYYCSDGPPSGSWGQGTLLTVSS VL: DIQMTQSPSSLSASVGDRVTITCRISENIYSYLAWYQQKPGKAPKLLVYNAKILVEGVPSRFSGSGSGTDFTLTISSLQPEDFGTYYCQHHYTVPWTFGQGTKLEIK | 372 | 997 | 5560 | 25600 | 78800 |  | 481 | 885 | 2340 | 7080 | 19000 | 47200 | 558 | 1040 | 5220 | 22500 | 73300 | 
4 | AB S2 (antibody, V domains shown) VH: EVQLLESGGGLVQPGGSMRLSCAASGFTFSNYWMNWVRQAPGKGLEWIAQIRLKSDNYATHYADSVKGRFTISRDDSKRTVYLQMNSLRAEDTGTYYCSDGPPSGSWGQGTLLTVSS VL: DIQMTQSPSSLSASVGDRVTITCRISENIYSYLAWYQQKPGKAPKLLVYNAKILVEGVPSRFSGSGSGTDFTLTISSLQPEDFGTYYCQHHYTVPWTFGQGTKLEIK | 608 | 956 | 4840 | 21000 | 83400 |  | 505 | 746 | 2270 | 6970 | 20000 |  | 537 | 1510 | 3950 | 18100 | 53400 | 
5 | AB S6 (antibody, V domains shown) VH: EVQLLESGGGLVQPGGSMRLSCAASGFTFSNYWMNWVRQAPGKGLEWLAQIRLKSDNYVTHYADSVKGRFTISRDDSKRTVYLQMNSLRAEDTGTYYCNDGPPSGSWGQGTLLTVSS VL: DIQMTQSPSSLSASVGDRVTITCRISENIYSYLAWYQQKPGKAPKLLVYNAKILVEGVPSRFSGSGSGTDFTLTISSLQPEDFGTYYCQHHYTVPWTFGQGTKLEIK | 448 | 765 | 3800 | 14600 | 54100 |  | 1320 | 1690 | 3300 | 4120 | 12500 | 42300 | 467 | 791 | 2950 | 12600 | 38600 | 76600
6 | AB S7 (antibody, V domains shown) VH: QVQLVQSGAEVKKPGASVKMSCKASGYTFTTYTIHWVRQAPGQGLEWIGFINPSSGYTEYAQKFQGRVTLTADKSTSTVYMELSSLRSEDTAVYFCANGDYYVAYWGQGTLVTVSS VL: DIQLTQSPSSLSASVGDRVTMTCTASSSVSSTYFHWYQQKPGKAPKLWIYSTSNLASGVPSRFSGSGSGTDYTLTISSMQPEDAATYYCHQYHRSPLTFGQGTKLEIK | 876 | 2350 | 6290 | 16000 | 47000 | 78700 | 1440 | 1790 | 3940 | 7970 | 16700 | 37300 | 586 | 1910 | 4500 | 8570 | 24000 | 53900
7 | AB S10 (antibody, V domains shown) VH: QVQLVQSGAEVKKPGASVKMSCKASGYTFTTYTMHWVRQAPGQGLEWIGFINPSSGYTEYAQKFQGRVTLTADKSTSTVYMELSSLRSEDTAVYYCANGDYYVGYWGQGTLVTVSS VL: DIQLTQSPSSLSASVGDRVTMTCTASSSVSSTYFHWYQQKPGKAPKLWIYSTSNLASGVPSRFSGSGSGTDYTLTISSMQPEDAATYYCHQYHRSPLTFGQGTKLEIK | 2080 | 7690 | 27500 | 68200 |  |  | 874 | 2540 | 6850 | 9940 | 22200 | 35100 | 862 | 4690 | 16300 | 50400 | 87900 | 
8 | AB S12 (antibody, V domains shown) VH: QVQLVQSGAEVKKPGASVKMSCKASGYTFTTYTMHWVRQAPGQGLEWIGFINPSSGYTEYAQKFQGRVTLTADKSTSTVYMELSSLRSEDTAVYFCANGDYYVGYWGQGTLVTVSS VL: DIQLTQSPSSLSASVGDRVTMTCTASSSVSSTYFHWYQQKPGKAPKLWIYSTSNLASGVPSRFSGSGSGTDYTLTISSMQPEDAATYYCHQYHRSPLTFGQGTKLEIK | 1310 | 2080 | 8850 | 22900 | 62300 |  | 947 | 1910 | 5040 | 14800 | 37500 |  | 638 | 1260 | 4630 | 14600 | 38300 | 83400
9 | AB S8 (antibody, V domains shown) VH: QVQLVQSGAEVKKPGASVKMSCKASGYTFTTYTMHWVRQAPGQGLEWIGVINPSSGYTEYAQKFQGRVTLTADKSTSTVYMELSSLRSEDTAVYFCANGDYYVGYWGQGTLVTVSS VL: DIQLTQSPSSLSASVGDRVTMTCTASSSVSSTYFHWYQQKPGKAPKLWIYSTSNLASGVPSRFSGSGSGTDYTLTISSMQPEDAATYYCHQYHRSPLTFGQGTKLEIK | 1640 | 10400 | 42600 |  |  |  | 720 | 6220 | 7200 | 16600 | 32900 | 40500 | 834 | 6410 | 26700 | 85900 |  | 
10 | AB S9 (antibody, V domains shown) VH: QVQLVQSGAEVKKPGASVKMSCKASGYTFTTYTIHWVRQAPGQGLEWIGVINPSSGYTDYAQKFQGRVTLTADKSTSTVYMELSSLRSEDTAVYFCANGDYYVGYWGQGTLVTVSS VL: DIQLTQSPSSLSASVGDRVTMTCTASSSVSSTYFHWYQQKPGKAPKLWIYSTSNLASGVPSRFSGSGSGTDYTLTISSMQPEDAATYYCHQYHRSPLTFGQGTKLEIK | 2990 | 16400 | 54600 |  |  |  | 1910 | 11600 | 19200 | 23900 | 35600 |  | 2940 | 14000 | 48500 |  |  | 
11 | AB S11 (antibody, V domains shown) VH: QVQLVQSGAEVKKPGASVKMSCKASGYTFTTYTIHWVRQAPGQGLEWIGVINPSSGYTEYAQKFQGRVTLTADKSTSTVYMELSSLRSEDTAVYFCANGDYYVAYWGQGTLVTVSS VL: DIQLTQSPSSLSASVGDRVTMTCTASSSVSSTYFHWYQQKPGKAPKLWIYSTSNLASGVPSRFSGSGSGTDYTLTISSMQPEDAATYYCHQYHRSPLTFGQGTKLEIK | 2130 | 6100 | 20200 | 59400 |  |  | 2350 | 2770 | 7000 | 12800 | 19900 | 33400 | 1460 | 4950 | 14700 | 44900 | 85600 | 
